Reference: the nanobody polyreactivity screen of Harvey et al. (2022)

assay: yeast display, Sf9 membrane polyspecificity reagent, FACS + sequencing; frameworks hold sequencing errors
Outline: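 Polyreactivity labels are assigned by the sorting gate from which each nanobody was recovered. The gates were low and high (top ~1%), set on anti-HA fluorescence for expression and streptavidin fluorescence for reagent binding. Before sorting, galactose-induced (36–48 hours) yeast display cells were stained for 1 hour at 4 °C with 10% biotinylated, detergent-solubilized Sf9 membrane reagent.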

Sequence	polyreactivity (PSR sort gate)
QVQLVESGGGLVQAGGSLRLSCAASGRIFLYYAMGWYRQAPGKERELVAAITSSGGGTYYADSVKGRFTISRDNAKNTVYLQMNSLKPEDTAVYYCNKAGPYYGYPHYLFYYWGQGTQVTVSS	high polyreactivity
QVQLVESGGGLVQAGGSLRLSCAASGRIFLYYAMGWYRQAPGKERELVAAITSSGGGTYYADSVKGRFTISRDNAKNTVYLQMNSLKPLDTAVYYCAARRRSQWRYYYWGQGTQVTVSS	high polyreactivity
QVQLVESGGGLVQAGGSLRLSCAASGRIFLYYTMGWYRQAPGKERELVAAITRSGGSTYYADSVKGRFTISRDNAKNTVYLQMNSLKPEDTAVYYCNRAYVRYVPMNYWGQGTQVTVSS	high polyreactivity
QVQLVESGGGLVQAGGSLRLSCAASGRIFNAYAMGGYRQAPGKERELVAAISGGGRTYYADSVKGRFTISRDNAKNTVYLQMNSLKPEDTAVYYCAADSPTQSTLGKYDYWGQGTQVTVSS	high polyreactivity
QVQLVESGGGLVQAGGSLRLSCAASGRIFNAYAMGWYRPAPGKERELVAAISSIGGRTYYADSVKGRFTISRDNAKNTVYLQMNSLKPVDTAVYYCAADWSYVRYYYWGQGTQVTVSS	high polyreactivity
QVQLVESGGGLVQAGGSLRLSCAASGRIFNFNGMGWYRQAPGKERELVAAITSGGSTYYADSVKGRFTISRDNAKNTVYLQMNSLKPEDTAVYYCAAQNAWWSNGRSYDYWGQGTQVTVSS	low polyreactivity
QVQLVESGGGLVQAGGSLRLSCAASGRIFNGYTMGWYRQAPGKETEFVATISRSGGSTYYADSVKGRFTISRDHAKNTVYLQMNSLKPEDSAVYYCAKTYPAKWEYDYWGQGTQVTVSS	low polyreactivity
QVQLVESGGGLVQAGGSLRLSCAASGRIFNHYAMGWYRQAPGKERELVATISATGGSTYYADSVKGRFTISRDNAKNTVYLQMNSLNPEDTAVYYCNAGHLWYWRTRSARRVGMVYWGQGTQVTVSS	low polyreactivity
QVQLVESGGGLVQAGGSLRLSCAASGRIFNLYAMGWYRQAPGKERDLVAAINWSGDRTYYADSVKGRFTISRDNAKNTVYLQMNSLKPDDTAVYYCNADGLEIERYAYWYVFLGYDYWGQGTQVTVSS	low polyreactivity
QVQLVESGGGLVQAGGSLRLSCAASGRIFNLYAMGWYRQAPGKERELVAAINWSGDRTYYADSVKGRFTISRDNAKNTVYLQMYSLKPEDTAVYYCNADGLEIERYAYWYVFLGYDYWGQGTQVTVSS	low polyreactivity
QVQLVESGGGLVQAGGSLRLSCAASGRIFNLYAMGWYRQAPGKERELVAGISWSGGDTTYADSVKGRFTISRDNAKNTVYLQMNSLKPEDTAVYYCNKRAYLDYGGRGYNYWGQGTRVTVSS	low polyreactivity
QVQLVESGGGLVQAGGSLRLSCAASGRIFNNNAMGWYRPAPGKERELVASITRRGGRTYYADSVKGRFTISRDNAKNTVYLQMNSLKPEDTAVYYCNALAGPPEFVRNYYWGQGTQVTVSS	high polyreactivity
QVQLVESGGGLVQAGGSLRLSCAASGRIFNRYAMGWSRQAPGKERELVAAITTSADSTYADSVKGRFTISRDNAKNTVYLQRNSLKPEDTAVYYCNVASRQGSTYDYWGQGTQVTVSS	high polyreactivity
QVQLVESGGGLVQAGGSLRLSCAASGRIFNRYARGWYRQAPGKERELVAAITYNGGSTYYADSVKGRFTISRDNAKNTVYLQMNSLKPEDTAVYYCNAVEVLDEGCGFWYYYWGQGTQVTVSS	high polyreactivity
QVQLVESGGGLVQAGGSLRLSCAASGRIFNSNTMGWYRQAPGKERELVAAITYSGGSTYYADSVKGRFTISRDNAKNTVYLQMNSLNPEDTAVYYCAADFWEYDGPWYANDYDSWGQGTQVTVSS	low polyreactivity
QVQLVESGGGLVQAGGSLRLSCAASGRIFNVNAMGWYRQAPGKERDLVARIDTGVGTKYADSVKGRFTISRDNAKNTVYLQMNSLKPEDTAVYYCAARSFSGYGYLVRPKWYYYWGQGTQVTVSS	high polyreactivity

Sequence	polyreactivity (PSR sort gate)
QVQLVESGGGLVQAGGSLRLSCAASGRIFNVYAMGWYRQAPGKERELVASINSAGSTYYADSVKGRFTISRDNAKNTVYLQMNSLKPEDTAVYYCAADSYSVYYYTYDSWGQGTQVTVSS	low polyreactivity
QVQLVESGGGLVQAGGSLRLSCAASGRIFNYAMGWYRQAPGKERELVAAISRGGGRTYYADSVKGRFTISRDNAKNTVYLQMNSLKPEDTAVYYCAADLSPEYDYWGQGTQVTVSS	high polyreactivity
QVQLVESGGGLVQAGGSLRLSCAASGRIFNYNAMGWYRQAPGKERELVAAISSGGDTYYADSVKGRFTISRDNAKNTVYLQINSLKPEDTAVYYCGSTFVVKGTRFGYWGQGTQVTVSS	high polyreactivity
QVQLVESGGGLVQAGGSLRLSCAASGRIFNYYAMRWYRQAPGKETELVAAITSSGGSTYYADSVKGRFTISRDNAKNTVYLQMNSLKPEDTAVYYCAAVSTATIRGGYWGQGTQVTVSS	high polyreactivity
QVQLVESGGGLVQAGGSLRLSCAASGRIFNYYDMGWYRQAPGKEREFVAAISWRGTSTRYADSVKGRFTISRDNAKNTVYLQMNSLKPEDTAVYYCAADDYARRFSFKYDYWGQGTQVTVSS	high polyreactivity
QVQLVESGGGLVQAGGSLRLSCAASGRIFPAYAMGWYRQAPGKERELVASIRRGGITYADSVKGRFTISRDNAKNTVYLQMNSLKPEDTAVYYCARPQWRDWYGYWGQGTQVTVSS	low polyreactivity
QVQLVESGGGLVQAGGSLRLSCAASGRIFPAYVMGWYRQAPGKERELVATIDNGGCTYYADSVKGRFTISRDNAKNTVYLQMNSLKPEDTAVYYCARDRHVRWGLKMDYWGQGTQVTVSS	low polyreactivity
QVQLVESGGGLVQAGGSLRLSCAASGRIFPAYVMGWYRQPPGKERELVATIDNGGGTYYADSVKGRFTISRDNAKNTVYLQMNSLKPEDTAVYYCARDPHVRWGLKMDYWGQGTQVTVSS	low polyreactivity
QVQLVESGGGLVQAGGSLRLSCAASGRIFPEYAMGWYRQAPGKERELVAAITSGGNYADSVKGRFTISRDNAKNTVYLQMNSLKPEDTAVYYCAAVYLWYGSWPLHFAAYDYWGQGTQVTVSS	low polyreactivity
QVQLVESGGGLVQAGGSLRLSCAASGRIFPFNAMGWYRQAPGKERELVAAISSSGGSTYYADSVKGRFTISRDNAKNTVYLQMNSLKPEDTAVYSCAATRNSDGMGYWGQGTEVTVSS	low polyreactivity
QVQLVESGGGLVQAGGSLRLSCAASGRIFPFYAMGWNRQAPGKERELVAAITSSGGRTYYADSVKGRFTISRDNAKNTVYLQMNSLIPEDTAVYYCAADDTDYPEYDYWGQGTQVTVSS	high polyreactivity
QVQLVESGGGLVQAGGSLRLSCAASGRIFPFYVMGWYRQAHGKERELVATINWSGGSTYYADSVKGRFTISRDNAKNTVYLQMNRLKPEDTAVYYCNGAPSDDYDYWGQGTQVTVSS	low polyreactivity
QVQLVESGGGLVQAGGSLRLSCAASGRIFPFYVMGWYRQAPGKERELVATINWSGGSTYYADSVKGRFTISRDNAKNTVYLQMNSLKPEDSAVYYCNAAPSEDYDYWGQGTQVTVSS	low polyreactivity
QVQLVESGGGLVQAGGSLRLSCAASGRIFPFYVMGWYRQAPGKERELVATINWSGGSTYYADSVKGRFTISRDNAKNTVYLQMNSLKPEDTAVYYCNAAPSDDYDYWGQGTQVTVSS	low polyreactivity
QVQLVESGGGLVQAGGSLRLSCAASGRIFPFYVMGWYRQAPGKERELVATINWSGGSTYYADSVKGRFTISRDNAKNTVYLQMNSLKPEETAVYYCNAAPSDDYDYWGQGTQVTVSS	low polyreactivity
QVQLVESGGGLVQAGGSLRLSCAASGRIFPGYAMGWYRQAPGKERELVAGISNDASTNYADSVKGRFTISRDNAKNTVYLQMNSLKPEDTAVFYCAAEISYLSVPRYDYWGQGTQVTVSS	low polyreactivity
